Test [1] has as its target epidermal growth factor receptor (EGFR) (human) (UniProt P00533). Nature of the test: flow cytometry on A431 cells, 2 µg/mL human IgG1 negative control, anti-human IgG1-PE secondary (cell only: 11.7). (In flow cytometry, cells or beads pass a laser one at a time.)
The target is the same in test [2]. Nature of the test: flow cytometry on A431 cells, 2 µg/mL human IgG1 negative control, anti-human IgG1-PE secondary (cell only: 10.84).
The target is the same in test [3]. Nature of the test: flow cytometry on A431 cells, 2 µg/mL human IgG1 negative control, anti-human IgG1-PE secondary (cell only: 11.76).
For another test, the system named is MCF-7 cells. Nature of the test: In vitro cytotoxicity, SRB assay, MCF-7 cells. The class given is cell-based. The conditions noted are these: MCF7 (EGFR low), 72 hours. The method, then: (§1) A431 cells, which express high levels of EGFR, and MCF-7 cells, which express low levels of EGFR, were plated at about 1000 cells per well in a 96-well plate in 100 μL of media. HCC-827 cells, which express an intermediate level of EGFR were plated at about 500 cells per well in a 96-well plate in 100 μL of media. The cells were incubated at 37° C. in 5% CO2 for 24 hours. […] The cells were incubated for 72 hours and then fixed for 1 hour at 4° C. after adding 100 μL of ice-cold 10% tricholoracetic acid to each well. Viable cells were counted using SRB dye (Sulphorhodamine, Sigma S 1402) and a Molecular Devices SpectraMax 190 plate reader running Softmax Pro v5, monitoring absorbance at 540 nm (FIG. 12).
In general terms: Sulforhodamine B stains cellular protein and so reports cell mass.

For a further test, the system named is HCC-827 cells. Nature of the test: In vitro cytotoxicity, SRB assay, HCC-827 cells. It counts as cell-based. The conditions noted are these: HCC-827 (EGFR Intermediate: del E746_A750), 72 hours. As to the method: as §1
For another test, the system named is A431 cells. Nature of the test: In vitro cytotoxicity, SRB assay, A431 cells. It counts as cell-based, human. The following applies: A431 (EGFR high), 72 hours. As to the method: as §1
The target of test [4] is epidermal growth factor receptor (EGFR) (human) (UniProt P00533). Nature of the test: flow cytometry on A431 cells, 0.5 µg/mL primary antibody, anti-human IgG1-PE secondary.

pIC50: −log10 of the molar value. Where a SMILES comes first, the peptide text is derived from it. [ ]: non-standard residue; d: D form. Dolaproine = CO[C@@H]([C@@H]1CCCN1)[C@@H](C)C(=O)O; Dil = CC[C@H](C)[C@H](NC)[C@@H](CC(=O)O)OC; NMeV = CN[C@H](C(=O)O)C(C)C

The term pIC50 denotes the IC50 on a negative log10 scale, so that one unit is a factor of ten. A lower pIC50 goes with a high IC50.

The compound Human IgG1 (antibody) came in with a Geometric Mean (PE-A fluorescence) in test [1] of 10.9. Moreover, the Peak Channel (PE-A fluorescence) in test [2] worked out at 11.4. For the same compound, the Median (PE-A fluorescence) in test [3] turned out to be 11.4.

As to `CC[C@H](C)[C@@H]([C@@H](CC(=O)N1CCC[C@H]1[C@H](OC)[C@@H](C)C(=O)N[C@@H](Cc1ccccc1)C(=O)OC)OC)N(C)C(=O)[C@@H](NC(=O)[C@@H](NC)C(C)C)C(C)C` [MMAF-Ome, monomethyl auristatin F-Ome] (H-[NMeV]V[Dil][Dolaproine]F-OMe), the values for the pIC50 with MCF-7 cells, with HCC-827 cells and in the test with A431 cells were 8.74, 8.70 and 8.95, respectively.

Turning to Erbitux(LC)-G7CVIM (antibody), in test [4], the Geometric Mean (PE-A fluorescence) turned out to be 160.

The record behind these values is patent US10118965B2, “Compositions and methods related to anti-EGFR antibody drug conjugates” (LegoChem Biosciences, Inc., priority 2015, dated 2018).
